Here are results for one molecule from paper PMC2838799, “Aptamer Antagonists of Myelin-Derived Inhibitors Promote Axon Growth”.

The target in this series is T1, Nogo-66 receptor (NgR)/Fc chimera (rat, UniProt Q99M75 27-447).
T1 sequence: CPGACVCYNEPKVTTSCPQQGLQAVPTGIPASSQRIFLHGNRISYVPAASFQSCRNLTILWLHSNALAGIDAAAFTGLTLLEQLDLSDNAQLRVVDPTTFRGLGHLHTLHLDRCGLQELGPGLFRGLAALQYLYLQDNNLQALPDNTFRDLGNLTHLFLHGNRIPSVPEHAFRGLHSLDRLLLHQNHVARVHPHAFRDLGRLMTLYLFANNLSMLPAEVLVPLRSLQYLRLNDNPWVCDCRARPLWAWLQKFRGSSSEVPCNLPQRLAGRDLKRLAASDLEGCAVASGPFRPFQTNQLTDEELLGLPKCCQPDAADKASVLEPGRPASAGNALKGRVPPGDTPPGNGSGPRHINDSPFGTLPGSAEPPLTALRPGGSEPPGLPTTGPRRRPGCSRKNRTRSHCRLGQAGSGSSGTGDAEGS
Briefly: filter binding; three-point estimate, data not shown; Selection buffer PBS pH 7.4, 3 mM MgCl2; RNA 0.5 nM, NgR/Fc 12.5-500 nM for Kd; competition 20 min at 37 C. Conditions: protein: commercial; tags: human IgG Fc fusion; chain copies: 2; label: 32P.

B1: Clone 6 (ssRNA)
RNA: GGGUUUACCUAGGUGUAGAUGCUCUCUCUAUUUCAUUCGUAGGCUAUUGGUGCCGCAAAUACUAGCUUUACGAAAGUGACGUCUGAACUGCUUCGAAAA
On to B1, for which the binding result is reported as “binds”.
